Target: microtubules polymerised from bovine brain tubulin (bovine), Q6B856
Assay: TIRF microscopy, single-molecule dwell-time analysis

B1: His-CLASP2γ-eGFP-StrepII (full-length human CLASP2γ with C-terminal eGFP) (natural protein)
chain: MAMGDDKSFDDEESVDGNRPSSAASAFKVPAPKTSGNPANSARKPGSAGGPKVGGASKEGGAGAVDEDDFIKAFTDVPSIQIYSSRELEETLNKIREILSDDKHDWDQRANALKKIRSLLVAGAAQYDCFFQHLRLLDGALKLSAKDLRSQVVREACITVAHLSTVLGNKFDHGAEAIVPTLFNLVPNSAKVMATSGCAAIRFIIRHTHVPRLIPLITSNCTSKSVPVRRRSFEFLDLLLQEWQTHSLERHAAVLVETIKKGIHDADAEARVEARKTYMGLRNHFPGEAETLYNSLEPSYQKSLQTYLKSSGSVASLPQSDRSSSSSQESLNRPFSSKWSTANPSTVAGRVSAGSSKASSLPGSLQRSRSDIDVNAAAGAKAHHAAGQSVRSGRLGAGALNAGSYASLEDTSDKLDGTASEDGRVRAKLSAPLAGMGNAKADSRGRSRTKMVSQSQPGSRSGSPGRVLTTTALSTVSSGVQRVLVNSASAQKRSKIPRSQGCSREASPSRLSVARSSRIPRPSVSQGCSREASRESSRDTSPVRSFQPLASRHHSRSTGALYAPEVYGASGPGYGISQSSRLSSSVSAMRVLNTGSDVEEAVADALKKPARRRYESYGMHSDDDANSDASSACSERSYSSRNGSIPTYMRQTEDVAEVLNRCASSNWSERKEGLLGLQNLLKNQRTLSRVELKRLCEIFTRMFADPHGKRVFSMFLETLVDFIQVHKDDLQDWLFVLLTQLLKKMGADLLGSVQAKVQKALDVTRESFPNDLQFNILMRFTVDQTQTPSLKVKVAILKYIETLAKQMDPGDFINSSETRLAVSRVITWTTEPKSSDVRKAAQSVLISLFELNTPEFTMLLGALPKTFQDGATKLLHNHLRNTGNGTQSSMGSPLTRPTPRSPANWSSPLTSPTNTSQNTLSPSAFDYDTENMNSEDIYSSLRGVTEAIQNFSFRSQEDMNEPLKRDSKKDDGDSMCGGPGMSDPRAGGDATDSSQTALDNKASLLHSMPTHSSPRSRDYNPYNYSDSISPFNKSALKEAMFDDDADQFPDDLSLDHSDLVAELLKELSNHNERVEERKIALYELMKLTQEESFSVWDEHFKTILLLLLETLGDKEPTIRALALKVLREILRHQPARFKNYAELTVMKTLEAHKDPHKEVVRSAEEAASVLATSISPEQCIKVLCPIIQTADYPINLAAIKMQTKVIERVSKETLNLLLPEIMPGLIQGYDNSESSVRKACVFCLVAVHAVIGDELKPHLSQLTGSKMKLLNLYIKRAQTGSGGADPTTDVSGQS
modifications: not checked
Which dwell time at growing microtubule tips, with 10 nM EB1 does the source give for B1 here?
Its dwell time at growing microtubule tips, with 10 nM EB1 is 1.8 s.

What about the dwell time of lattice-binding events, with 10 nM EB1 of the same binder?
The dwell time of lattice-binding events, with 10 nM EB1 was 0.74 s.

What about the mean dwell time on microtubule tips, without EB1 of the same binder?
Its mean dwell time on microtubule tips, without EB1 is 0.67 s.

What about the mean dwell time on the microtubule lattice, without EB1 of the same binder?
The mean dwell time on the microtubule lattice, without EB1 was 0.49 s.

What about the tip association rate, with 10 nM EB1 of the same binder?
Its tip association rate, with 10 nM EB1 is 5.3e+08 M⁻¹ s⁻¹.

What about the tip association rate, without EB1 of the same binder?
The tip association rate, without EB1 was 2.9e+08 M⁻¹ s⁻¹.
